From patent US20250263475A1 (AGENCY FOR SCIENCE TECHNOLOGY AND RESEARCH, published 2025)
Ends that are not written are not given here. * marks the point of attachment. Biotin = O=C1N[C@H]2[C@H](CS[C@H]2CCCCC(=O)*)N1

Experiments:
267 RNSFEVHVCACPG 279 = biological target: T1, 267 RNSFEVHVCACPG 279 (not fully specified; cysteine pairing not given here); assay: ELISA on biotinylated 13-mer on streptavidin plate, antibody 1 ug/ml, O.D. 650 nm
T1 construct: also called unsubstituted 13-mer of the alanine scan on R273H
T1 peptide: Biotin-RNSFEVHVCACPG

SEQ ID NO 117 = biological target: T2, SEQ ID NO 117; assay: phage display: peptide captured by the antibody from an M13 random 12-mer library (FIG. 7C = clone 13E4 by paragraph 523)
T2 peptide: TFVHGNTWTIVN

SEQ ID NO 115 = biological target: T3, SEQ ID NO 115; assay: as above
T3 peptide: YNTFPYHLGYTL

SEQ ID NO 114 = biological target: T4, SEQ ID NO 114; assay: as above
T4 peptide: YHVGGILGRLFM

SEQ ID NO 116 = biological target: T5, SEQ ID NO 116; assay: as above
T5 peptide: DNASSSKVHHGH

SEQ ID NO 113 = biological target: T6, SEQ ID NO 113; assay: as above
T6 peptide: GKTYSYHMQLYT

DNASSSKVHHGH = biological target: T7, DNASSSKVHHGH; assay: phage display, random 12-mers on M13 pIII, panning on the antibody
T7 construct: also called line 2 under 13E4
T7 peptide: DNASSSKVHHGH

YNTFPYHLGYTL = biological target: T8, YNTFPYHLGYTL; assay: as above
T8 construct: also called line 5 under 13E4
T8 peptide: YNTFPYHLGYTL

GKTYSYHMQLYT = biological target: T9, GKTYSYHMQLYT; assay: as above
T9 construct: also called line 4 under 13E4
T9 peptide: GKTYSYHMQLYT

TFVHGNTWTIVN = biological target: T10, TFVHGNTWTIVN; assay: as above
T10 construct: also called line 1 under 13E4
T10 peptide: TFVHGNTWTIVN

YHVGGILGRLFM = biological target: T11, YHVGGILGRLFM; assay: as above
T11 construct: also called line 3 under 13E4
T11 peptide: YHVGGILGRLFM

SEQ ID NO 139 = biological target: T12, SEQ ID NO 139; assay: phage display: peptide captured by the antibody (FIG. 8B taken as clone 3G11 by paragraph 561)
T12 peptide: FSVPSGHYIRAN

SEQ ID NO 138 = biological target: T13, SEQ ID NO 138; assay: as above
T13 peptide: WSVPPGRHIHYS

SEQ ID NO 142 = biological target: T14, SEQ ID NO 142; assay: as above
T14 peptide: FSVRPYDPQIEN

SEQ ID NO 141 = biological target: T15, SEQ ID NO 141; assay: as above
T15 peptide: FSVPFDRIQETP

SEQ ID NO 137 = biological target: T16, SEQ ID NO 137; assay: as above
T16 peptide: GPSCHYCFTGLP

SEQ ID NO 140 = biological target: T17, SEQ ID NO 140; assay: as above
T17 peptide: FSVRPFHYAQDN

SEQ ID NO 136 = biological target: T18, SEQ ID NO 136; assay: as above
T18 peptide: SSTHYSWSLMDA

[1] = biological target: T19, mouse p53 wild-type full length protein (mouse, UniProt P02340 1-390); assay: ELISA on coated full-length protein
T19 construct: mature; Full length protein in ELISA; also called wildtype mouse p53; p53 of wild-type MEFs

GPSCHYCFTGLP = biological target: T20, GPSCHYCFTGLP; assay: phage display, random 12-mers on M13 pIII, panning on the antibody
T20 construct: also called lines 2 and 3 under 3G11
T20 peptide: GPSCHYCFTGLP

SSTHYSWSLMDA = biological target: T21, SSTHYSWSLMDA; assay: as above
T21 construct: also called line 1 under 3G11
T21 peptide: SSTHYSWSLMDA

FSVRPYDPQIEN = biological target: T22, FSVRPYDPQIEN; assay: as above
T22 construct: also called line 9 under 3G11
T22 peptide: FSVRPYDPQIEN

FSVPSGHYIRAN = biological target: T23, FSVPSGHYIRAN; assay: as above
T23 construct: also called line 10 under 3G11
T23 peptide: FSVPSGHYIRAN

WSVPPGRHIHYS = biological target: T24, WSVPPGRHIHYS; assay: as above
T24 construct: also called lines 4 and 5 under 3G11
T24 peptide: WSVPPGRHIHYS

FSVPFDRIQETP = biological target: T25, FSVPFDRIQETP; assay: as above
T25 construct: also called line 7 under 3G11
T25 peptide: FSVPFDRIQETP

FSVRPFHYAQDN = biological target: T26, FSVRPFHYAQDN; assay: as above
T26 construct: also called line 8 under 3G11
T26 peptide: FSVRPFHYAQDN

[2] = biological target: T27, human p53 wild-type full length protein (human, UniProt P04637 1-393); assay: ELISA on coated full-length protein
T27 construct: Full length recombinant protein in ELISA; expressed in transfected H1299 cells or endogenous in MCF7/A549 cells and tumour samples in blots, IP, IF and IHC; also called wildtype p53; WT HP53

SEQ ID NO 105 = biological target: T28, SEQ ID NO 105; assay: phage display: peptide captured by the antibody from an M13 random 12-mer library (FIG. 7B = clone 4H2 by paragraph 523)
T28 peptide: SRPADHWPRHNE

SEQ ID NO 106 = biological target: T29, SEQ ID NO 106; assay: as above
T29 peptide: SSRPMAHWPIKV

SEQ ID NO 108 = biological target: T30, SEQ ID NO 108; assay: as above
T30 peptide: SNTPHWPGRPGI

SEQ ID NO 109 = biological target: T31, SEQ ID NO 109; assay: as above
T31 peptide: INTPRDWAYGGL

SEQ ID NO 104 = biological target: T32, SEQ ID NO 104; assay: as above
T32 peptide: ELWQNVRPFLWV

SSRPMAHWPIKV = biological target: T33, SSRPMAHWPIKV; assay: phage display, random 12-mers on M13 pIII, panning on the antibody
T33 construct: also called line 3 under 4H2
T33 peptide: SSRPMAHWPIKV

SNTPHWPGRPGI = biological target: T34, SNTPHWPGRPGI; assay: as above
T34 construct: also called line 5 under 4H2
T34 peptide: SNTPHWPGRPGI

ELWQNVRPFLWV = biological target: T35, ELWQNVRPFLWV; assay: as above
T35 construct: also called line 1 under 4H2
T35 peptide: ELWQNVRPFLWV

SRPADHWPRHNE = biological target: T36, SRPADHWPRHNE; assay: as above
T36 construct: also called line 2 under 4H2
T36 peptide: SRPADHWPRHNE

B1: anti-R273H p53 antibody clone 13E4 (antibody, V domains shown)
VH: EVQLLETGGDLVTPGGSLKLSCAASGFSFSDYYMYWVRQTPEKRLEWVATISVGGTYTFYSDNVKGRFVISRDNARKNLHLEMNSLKSEDAAMYYCVRDGNDGKFLGYWGQGTFVTVTV
VL: DIVMTQSPLSLPVNLGDQVSLSCRSSQSIVHNNGDTYLEWYLQKPGQSPKLLIYKVSNRFSGVPDRFSGSGSGTDFTLKISRVEAEDLGIYYCFQGSHLPLTFGSGTKLELK
notes: Mouse monoclonal antibody from hybridoma; also called 13E4 mAb
- binding result (267 RNSFEVHVCACPG 279): binds
- binding result (SEQ ID NO 117): binds
- binding result (SEQ ID NO 115): binds
- binding result (SEQ ID NO 114): binds
- binding result (SEQ ID NO 116): binds
- binding result (SEQ ID NO 113): binds
- binding result (DNASSSKVHHGH): binds
- binding result (YNTFPYHLGYTL): binds
- binding result (GKTYSYHMQLYT): binds
- binding result (TFVHGNTWTIVN): binds
- binding result (YHVGGILGRLFM): binds

B2: anti-R248Q p53 antibody clone 3G11 (antibody, V domains shown)
VH: DVQLQQSGPELVKPGASVKMSCKASGYTFTDYYVKWVKQSPGQSLEWIGDIHPKNGGTNYNQKFKGKAALTVDKSSSTAYMQLNSLTSEDSAVYFCAKMGGYDDYWGQGTTLTVSS
VL: not shown
- binding result (SEQ ID NO 139): binds
- binding result (SEQ ID NO 138): binds
- binding result (SEQ ID NO 142): binds
- binding result (SEQ ID NO 141): binds
- binding result (SEQ ID NO 137): binds
- binding result (SEQ ID NO 140): binds
- binding result (SEQ ID NO 136): binds
- binding result [1]: no binding (tested: neat supernatant)
- binding result (GPSCHYCFTGLP): binds
- binding result (SSTHYSWSLMDA): binds
- binding result (FSVRPYDPQIEN): binds
- binding result (FSVPSGHYIRAN): binds
- binding result (WSVPPGRHIHYS): binds
- binding result (FSVPFDRIQETP): binds
- binding result (FSVRPFHYAQDN): binds

B3: mouse human chimeric anti-R248Q p53 antibody clone MH 3G11 (antibody, V domains shown)
VH: DVQLQQSGPELVKPGASVKMSCKASGYTFTDYYVKWVKQSPGQSLEWIGDIHPKNGGTNYNQKFKGKAALTVDKSSSTAYMQLNSLTSEDSAVYFCAKMGGYDDYWGQGTTLTVSS
VL: not shown
notes: also called chimeric 3G11
- binding result [1]: no binding (tested: 1 ng/µl)

B4: anti-R248Q p53 antibody clone 4H2 (antibody, V domains shown)
VH: QVQLKQSGPELVKPGASVKMSCKASGYTFTDYYLKWVRQSHGKSLEWIGDIDPKNGGTNYNQKFKGKATLTVDKSSSTAYMQLNSLTSEDSAVYYCAKQGGFDDYWGQGTTLTVSS
VL: not shown
notes: Mouse monoclonal antibody from hybridoma
- binding result [2]: no binding (tested: neat supernatant)
- binding result [1]: no binding (tested: neat supernatant)
- binding result (SEQ ID NO 105): binds
- binding result (SEQ ID NO 106): binds
- binding result (SEQ ID NO 108): binds
- binding result (SEQ ID NO 109): binds
- binding result (SEQ ID NO 104): binds
- binding result (SSRPMAHWPIKV): binds
- binding result (SNTPHWPGRPGI): binds
- binding result (ELWQNVRPFLWV): binds
- binding result (SRPADHWPRHNE): binds

B5: mouse human chimeric anti-R248Q p53 antibody clone MH 4H2 (antibody, V domains shown)
VH: QVQLKQSGPELVKPGASVKMSCKASGYTFTDYYLKWVRQSHGKSLEWIGDIDPKNGGTNYNQKFKGKATLTVDKSSSTAYMQLNSLTSEDSAVYYCAKQGGFDDYWGQGTTLTVSS
VL: not shown
notes: also called chimeric 4H2
- binding result [1]: no binding (tested: 1 ng/µl)
